Assay results: publication PMC12363821 (bioRxiv, 2025)
Changes are numbered by the printed parent chain.

Experiments:
Assay in all cases: flow cytometry on cells
[1] = biological target: T1, CD155 WT (wild-type CD155; poliovirus receptor, PVR) (human), P15151; details: remark: other sources report otherwise
T1 chain: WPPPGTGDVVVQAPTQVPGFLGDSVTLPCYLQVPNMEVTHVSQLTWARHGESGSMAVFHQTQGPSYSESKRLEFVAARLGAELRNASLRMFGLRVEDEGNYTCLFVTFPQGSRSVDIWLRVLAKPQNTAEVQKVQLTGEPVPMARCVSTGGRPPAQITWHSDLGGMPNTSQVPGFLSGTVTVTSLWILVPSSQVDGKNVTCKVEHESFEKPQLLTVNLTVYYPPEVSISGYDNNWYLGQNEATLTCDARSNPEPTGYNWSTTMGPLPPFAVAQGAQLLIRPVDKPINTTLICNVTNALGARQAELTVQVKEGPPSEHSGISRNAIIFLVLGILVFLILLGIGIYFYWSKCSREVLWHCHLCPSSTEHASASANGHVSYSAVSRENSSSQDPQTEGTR

[2] = biological target: T2, CD155 Mut (high-affinity mutant variant of CD155, rs1058402, G>A; Ala67Thr) (human, UniProt P15151 21-417, Ala67Thr)
T2 sequence: T1 chain with A47T

[3] = biological target: T2, CD155 Mut (high-affinity mutant variant …); remark: listed apart in the source

B1: Recombinant human TIGIT-Immunoglobulin chimeric protein, Q495A1 22-141 (Fc fusion)
chain: MMTGTIETTGNISAEKGGSIILQCHLSSTTAQVTQVNWEQQDQLLAICNADLGWHISPSFKDRVAPGPGLGLTLQSLTVNDTGEYFCIYHTYPDGTYTGRIFLEVLESSVAEHGARFQIP
modifications: here or on the partner: Alexa Fluor 594 (Zenon human IgG labeling kit)
fold binding (AUC) against parental Mel1 hPSC [1]: 4.25 fold

B2: Recombinant human TIGIT-Immunoglobulin chimeric protein (Fc fusion)
chain: B1 chain
modifications: Alexa Fluor 594 (Zenon human IgG labeling kit)
fold binding (AUC) against the CD155 WT sBC line [2]: 1.37 fold | fold binding (AUC) against parental Mel1 hPSC [3]: 6.47 fold | fold binding (AUC) against the CD155 WT hPSC line [3]: 1.52 fold

B3: Recombinant human CD226-Immunoglobulin chimeric protein (Fc fusion)
chain: EEVLWHTSVPFAENMSLECVYPSMGILTQVEWFKIGTQQDSIAIFSPTHGMVIRKPYAERVYFLNSTMASNNMTLFFRNASEDDVGYYSCSLYTYPQGTWQKVIQVVQSDSFEAAVPSNSHIVSEPGKNVTLTCQPQMTWPVQAVRWEKIQPRQIDLLTYCNLVHGRNFTSKFPRQIVSNCSHGRWSVIVIPDVTVSDSGLYRCYLQASAGENETFVMRLTVAEGKTDNQYTLFVA
modifications: Alexa Fluor 594 (Zenon human IgG labeling kit)
fold binding (AUC) against the CD155 WT sBC line [2]: 1.29 fold
